From patent publication US20030219457A1

Experiments:
[1] = molecular target: Crotalus durissus terrificus venom; assay: ELISA, C.d.t. venom-coated wells; dilution 1:625
[2] = molecular target: Crotalus durissus terrificus venom; assay: ELISA, C.d.t. venom-coated wells; dilution 1:3125
[3] = molecular target: Crotalus durissus terrificus venom; assay: ELISA, C.d.t. venom-coated wells; dilution 1:5
[4] = molecular target: Crotalus durissus terrificus venom; assay: ELISA, C.d.t. venom-coated wells; dilution 1:62,500
[5] = molecular target: Crotalus durissus terrificus venom; assay: ELISA, wells coated with 5 µg/ml C.d.t. venom; undiluted
[6] = molecular target: Crotalus durissus terrificus venom; assay: ELISA, wells coated with 5 µg/ml C.d.t. venom; dilution 1:25
[7] = molecular target: Crotalus durissus terrificus venom; assay: ELISA, C.d.t. venom-coated wells; dilution 1:125
[8] = molecular target: Crotalus durissus terrificus venom; assay: ELISA, wells coated with 5 µg/ml C.d.t. venom; dilution 1:5
[9] = molecular target: Crotalus durissus terrificus venom; assay: ELISA, wells coated with 5 µg/ml C.d.t. venom; dilution 1:3125
[10] = molecular target: Crotalus durissus terrificus venom; assay: ELISA, wells coated with 5 µg/ml C.d.t. venom; dilution 1:125
[11] = molecular target: Crotalus durissus terrificus venom; assay: ELISA, C.d.t. venom-coated wells; dilution 1:312,500
[12] = molecular target: Crotalus durissus terrificus venom; assay: ELISA, wells coated with 5 µg/ml C.d.t. venom; dilution 1:625
[13] = molecular target: Crotalus durissus terrificus venom; assay: ELISA, C.d.t. venom-coated wells; dilution 1:25

preimmune IgY (antibody) showed an absorbance (ELISA as in Example 4) [1] of less than 0 OD, an absorbance (ELISA as in Example 4) [2] of less than 0 OD and an absorbance (ELISA as in Example 4) [3] of less than 0 OD. The absorbance (412 nm filter) [4] was 0.001 OD, the absorbance (ELISA as in Example 4) [5] was 0.003 OD and the absorbance (ELISA as in Example 4) [6] was 0 OD. The absorbance (ELISA as in Example 4) [7] was less than 0 OD, the absorbance (ELISA as in Example 4) [8] was less than 0 OD and the absorbance (ELISA as in Example 4) [9] was 0.002 OD. For the same substance, the absorbance (ELISA as in Example 4) [10] was 0.003 OD, the absorbance (412 nm filter) [11] was 0.01 OD and the absorbance (ELISA as in Example 4) [12] was 0 OD. The absorbance (ELISA as in Example 4) [13] was 0.016 OD.
